According to patent US20260049134A1 (UNIVERSITY OF FLORIDA RESEARCH FOUNDATION, published 2026):
Numbering of substitutions follows the chain as printed. Names may count otherwise. Blank lines part the entries; values can stand above or below the binder they belong to.

Tests used:
[1] = target: T1, GARS, endogenous in H929 multiple myeloma cells (human, UniProt P41250 37-739, limits assumed); test: IP from H929 cell lysate, LC-MS/MS
T1 construct: Native protein pulled down from H929 lysates; also called Glycyl-tRNA synthetase; GlyRS
T1 sequence: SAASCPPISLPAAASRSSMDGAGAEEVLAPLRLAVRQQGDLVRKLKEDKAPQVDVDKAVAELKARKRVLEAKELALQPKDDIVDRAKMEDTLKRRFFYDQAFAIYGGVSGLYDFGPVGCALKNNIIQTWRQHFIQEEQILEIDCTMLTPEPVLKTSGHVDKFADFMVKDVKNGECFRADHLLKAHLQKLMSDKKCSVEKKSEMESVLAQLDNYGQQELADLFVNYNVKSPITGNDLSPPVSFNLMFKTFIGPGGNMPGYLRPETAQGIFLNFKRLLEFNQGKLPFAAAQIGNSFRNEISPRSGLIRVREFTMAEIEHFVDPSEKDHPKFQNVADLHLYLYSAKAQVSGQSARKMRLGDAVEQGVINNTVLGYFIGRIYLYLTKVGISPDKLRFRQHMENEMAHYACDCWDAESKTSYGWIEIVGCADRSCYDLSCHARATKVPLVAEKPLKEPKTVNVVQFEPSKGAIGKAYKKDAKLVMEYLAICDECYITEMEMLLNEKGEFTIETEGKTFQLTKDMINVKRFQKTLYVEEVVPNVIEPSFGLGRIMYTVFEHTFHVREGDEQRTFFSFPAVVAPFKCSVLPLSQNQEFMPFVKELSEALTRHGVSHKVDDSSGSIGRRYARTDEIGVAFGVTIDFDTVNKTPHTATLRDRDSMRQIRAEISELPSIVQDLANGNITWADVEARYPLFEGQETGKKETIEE
Experimental: (§1) Immunoprecipitation. […] After 30 min of rocking at 4° C., and lysates were centrifuged at 18,400×g for 20 min at 4° C. Subsequently, 1-mL aliquots of the supernatants were pre-cleared twice with Protein G agarose (Thermo Fisher Scientific) by adding 50 μL of 50% resin slurry and incubating 30 min with end-over-end tumbling at 4° C., followed by centrifugation at 16,000×g for 5 min and pooling of the pre-cleared cell lysate aliquots. Representative mAbs from each cluster were immobilized on Protein G agarose at a ratio of 25 μg IgG1 per 30 μL of 50% slurry, diluted to 500 μL with Dulbecco's PBS (DPBS) and incubated for 1 h at 4° C. with tumbling, followed by centrifugation at 5,000×g for 30 s and 2 washes with lysis buffer. After the last wash, the ˜15 μL of IgG1-coated resin was blocked with 10 μL of 10% BSA (MilliporeSigma). Next, 1 mL of the pooled pre-cleared cell lysate was added to the IgG1-coated resin and incubated for 3 h at 4° C. with tumbling. […] Finally, 16 μL of the eluate (˜20%) was analyzed on a reducing SDS-PAGE gel stained with SYPRO Ruby dye (Bio-Rad Laboratories), while the rest was stored at −80° C. prior to LC-MS/MS analysis. […]

[2] = target: T2, ICAM1, endogenous in H929 multiple myeloma cells (human, UniProt P05362 28-532); test: flow cytometry, H929 + NT Green siRNA; None 416
T2 construct: Native protein on H929 cells (flow cytometry, siRNA knockdown) and in H929 lysates (IP/MS); also called CD54
T2 sequence (P05362 28-532 limits assumed): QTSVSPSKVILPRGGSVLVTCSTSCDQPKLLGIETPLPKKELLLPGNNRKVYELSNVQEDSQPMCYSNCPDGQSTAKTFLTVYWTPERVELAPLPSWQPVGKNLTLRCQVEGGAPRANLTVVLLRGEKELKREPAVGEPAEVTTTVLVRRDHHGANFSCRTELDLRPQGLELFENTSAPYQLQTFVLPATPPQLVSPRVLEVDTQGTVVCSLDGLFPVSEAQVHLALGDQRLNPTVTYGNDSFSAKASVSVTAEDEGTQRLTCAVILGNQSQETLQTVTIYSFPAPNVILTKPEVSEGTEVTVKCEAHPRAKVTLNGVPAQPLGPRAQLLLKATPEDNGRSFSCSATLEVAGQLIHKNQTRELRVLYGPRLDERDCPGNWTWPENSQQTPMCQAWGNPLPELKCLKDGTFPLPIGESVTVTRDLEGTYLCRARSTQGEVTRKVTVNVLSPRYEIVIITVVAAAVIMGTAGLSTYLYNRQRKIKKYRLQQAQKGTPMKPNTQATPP

[3] = target: T1, GARS, endogenous in H929 multiple …; test: IP from H929 cell lysate, LC-MS/MS, spectral counts
Experimental: as §1

[4] = target: T3, CADM1, endogenous in H929 multiple myeloma cells (human, UniProt Q9BY67 45-442); test: flow cytometry, H929 + PTPRG siRNA; None 490
T3 construct: Native protein on H929 cells (flow cytometry, siRNA knockdown) and in H929 lysates (IP/MS); RPMI-8226 cells were used for sorting with HW-97; also called IGSF4A
T3 sequence: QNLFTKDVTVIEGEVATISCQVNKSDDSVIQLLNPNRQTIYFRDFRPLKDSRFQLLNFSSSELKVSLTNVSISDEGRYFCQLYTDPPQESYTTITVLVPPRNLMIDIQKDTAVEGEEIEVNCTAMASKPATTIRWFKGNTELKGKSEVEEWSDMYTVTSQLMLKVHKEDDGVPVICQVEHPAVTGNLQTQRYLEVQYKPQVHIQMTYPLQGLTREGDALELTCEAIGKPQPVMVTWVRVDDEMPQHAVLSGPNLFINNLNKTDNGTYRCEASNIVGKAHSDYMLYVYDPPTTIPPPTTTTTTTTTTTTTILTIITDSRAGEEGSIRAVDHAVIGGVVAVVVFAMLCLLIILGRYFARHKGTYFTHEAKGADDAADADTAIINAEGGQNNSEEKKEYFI

binding result [1]: no binding
B1: HW-1 chimeric rabbit-human IgG1 LA/LA/PG (antibody, V domains shown)
VH: QSLEESGGGLFKPTDTLTLTCTASGFSLGSSYAISWVRQAPGKELEWIGTIDSGRAYYARWAKSRSTITRNTNENTVTLKMTSLTAADTATYFCARDLIPTYSQDIWGPGTLVTISS
VL: SFVLTQPASVQVNLGQTVSLTCTADTLSRRYASWYQQKPGQAPVLLIYRDTSRPSGVPDRFSGSSSGNTATLTISGAQAGDEADYYCATSDGSGNSYQYVFGGGTQLTVTS
notes: Fc-silenced (L234A/L235A/P329G) IgG1, lambda; Alexa Fluor 647-labeled in single-step flow cytometry; Prototype of cluster C-1

mAb binding (MFI) [2]: 51900
binding result [3]: no binding
B2: HW-113 chimeric rabbit-human IgG1 LA/LA/PG (antibody, V domains shown)
VH: QKQLVESGGGLVQPGGSLTLTCTVSGFSLNKYYMGWFRQAPGKGLEWIGVISRSGDTYYSSWAKGRFTISKASTTVDLRITSPTTEDTATYFCARDASSPGFHGDRLDLWGQGTLVTVSS
VL: B1 VL with R30S, S93I, N95S, S96N, Q98L, Y99W, S111G
notes: Fc-silenced (L234A/L235A/P329G) IgG1, lambda; Alexa Fluor 647-labeled in single-step flow cytometry

mAb binding (MFI) [4]: 7040
B3: HW-97 chimeric rabbit-human IgG1 LA/LA/PG (antibody, V domains shown)
VH: QKQLVESGGRLVTPGTPLTLTCTVTGIDLSSHGMSWVRQAPGKGLEWIGVIYPSGSTWYASWARGRFTISKTSTTVDLKMTSLTTEDTATHFCARGDVGGADNNIWGPGTLVTVSS
VL: B1 VL with N13D, D25E, R30S, N95S, S111G
notes: Fc-silenced (L234A/L235A/P329G) IgG1, lambda; Alexa Fluor 647-labeled in single-step flow cytometry; Prototype of cluster C-97

mAb binding (MFI) [4]: 5900
binding result [3]: no binding
B4: HW-101 chimeric rabbit-human IgG1 LA/LA/PG (antibody, V domains shown)
VH: QEQLVESGGRLVTPGTPLTLTCKASGFSLGKYDMSWVRQAPGKGLEWIGTIYAGSGSTWYASWAKGRFTISKTSTTVDLKMTSLTTEDTATYFCARDFLGVNSIWGPGTLVTISS
VL: B1 VL with R30S, G40D, Y48H, S65N, N95S, S96N, Y97F, Q98H, Y99F, S111G
notes: Fc-silenced (L234A/L235A/P329G) IgG1, lambda; Alexa Fluor 647-labeled in single-step flow cytometry; Cluster C-97

mAb binding (MFI) [2]: 483
B5: TH9-0022 (antibody, human IgG1, kappa, L234A L235A, V domains shown)
VH: QSLEESGGRLVTPGTPLTLTCTVSGFSLSSYAMNWVRQAPGKGLEWIGIINSYGSTYYASWAKGRFTISKTSTTVDLKITSPTTEDTATYFCARVTYDSYGYGYAPYGMDLWGPGTLVTVSS
VL: LVMTQTPSSTSNAVGGTVTIKCQASQSIGNVLAWYQQKPGQPPKLLIYAASTLASGVPSRVGGSRSGTEYTLTISGVQREDAATYYCLGSDSDSDIAFGGGTELEILR
notes: also called TH9-022; negative control

binding result [1]: no binding
B6: TH9-0022 (antibody, human IgG1, kappa, L234A L235A, V domains shown)
VH: B5 VH
VL: B5 VL
notes: also called TH9-022; negative control IgG1
